This is an account of results in US20230265179A1 (TWIST BIOSCIENCE, published 2023).

T1: IL1RL1 (UniProt Q01638 19-556, limits assumed)
T1 construct: whole, on cells; The flow cytometry used 'cytokine over-expressing Expi293 cells' against Expi293 parent cells
T1 sequence (looked up): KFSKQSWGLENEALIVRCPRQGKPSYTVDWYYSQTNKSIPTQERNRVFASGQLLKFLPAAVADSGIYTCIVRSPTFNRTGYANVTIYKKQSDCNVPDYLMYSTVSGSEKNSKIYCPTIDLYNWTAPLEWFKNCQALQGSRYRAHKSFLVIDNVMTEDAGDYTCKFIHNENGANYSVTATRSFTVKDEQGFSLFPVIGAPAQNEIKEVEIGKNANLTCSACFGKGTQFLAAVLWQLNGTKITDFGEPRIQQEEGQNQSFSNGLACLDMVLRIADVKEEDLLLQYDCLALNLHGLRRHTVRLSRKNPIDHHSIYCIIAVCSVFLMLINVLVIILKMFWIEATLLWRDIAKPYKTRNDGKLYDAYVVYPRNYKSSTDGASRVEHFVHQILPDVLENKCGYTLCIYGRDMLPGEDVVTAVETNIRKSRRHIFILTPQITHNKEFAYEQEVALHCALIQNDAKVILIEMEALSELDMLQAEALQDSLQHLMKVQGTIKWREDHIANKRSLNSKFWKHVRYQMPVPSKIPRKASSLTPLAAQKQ

B1: IL1RL1-375 (antibody, V domains shown)
VH: EVQLLESGGGLVQPGGSLRLSCAASGFAFSSYAMSWVRQAPGKGLELVSAISGSGDTSYYADSVKGRFTISRDNSKNTLYLQMNSLRAEDTAVYYCARVRRWSNFDYWGQGTLVTVSS
VL: DIQMTQSPSSLSASVGDRVTITCRASQSISRYLSWYQQKPGKAPKLLIYAGSKLQRGVPSRFSGSGSGTDFTLTISSLQPEDFATYYCQQTYSTPIAFGGGTKVEIK
B2: IL1RL1-380 (antibody, V domains shown)
VH: EVQLLESGGGLVQPGGPLRLSCAASGFSFSKFAMSWVRQAPGKGLEWVSGISGSGGNTYYADSVKGRFTISRDNSKNTLYLQMNSLRAEDTAVYYCVKGSRGSYRSSTLGPFKHWGQGTLVTVSS
VL: DIQMTQSPSSLSASVGDRVTITCRTSQSISTYLNWYQQKPGKAPKLLIYAASRLQNGVPSRFSGSGSGTDFTLTISSLQPEDFATYYCQQSYSVPGTFGGGTKVEIK
B3: IL1RL1-381 (antibody, V domains shown)
VH: EVQLLESGGGLVQPGGSLRLSCAASGFTSSNYAMTWVRQAPGKGLEWVSSIIGSGGGTYYADSVKGRFTISRDNSKNTLYLQMNSLRAEDTAVYYCARGIPRRKKGAGLFDYWGQGTLVTVSS
VL: DIQMTQSPSSLSASVGDRVTITCRASHSISSHLNWYQQKPGKAPKLLIYGASRLQRGVPSRFSGSGSGTDFTLTISSLQPEDFATYYCQQNYNTPFTFGGGTKVEIK
B4: IL1RL1-388 (antibody, V domains shown)
VH: EVQLLESGGGLVQPGGSLRLSCAASGFTFSRFAMSWVRQAPGKGLEWVSGISGSSGNTYYADSVKGRFTISRDNSKNTLYLQMNSLRAEDTAVYYCAREKRLPIRRRSGEPLGNYFDYWGQGTLVTVSS
VL: DIQMTQSPSSLSASVGDRVTITCRTSQSIRKYLNWYQQKPGKAPKLLIYASSRLQSGVPSRFSGSGSGTDFTLTISSLQPEDFATYYCQQNYRTPFTFGGGTKVEIK
B5: IL1RL1-377 (antibody, V domains shown)
VH: EVQLLESGGGLVRPGGSLRLSCAASGFTFRNFAMSWVRQAPGKGLEWVSSISGSGDTTYYADSVKGRFTISRDNSKNTLYLQMNSLRAEDTAVYYCARHKRGRVAVAFPMDVWGQGTLVTVSS
VL: DIQMTQSPSSLSASVGDRVTITCRASQNIGRYLNWYQQKPGKAPKLLIYGASTLQRGVPSRFSGSGSGTDFTLTISSLQPEDFATYYCQQSYSAPTFGGGTKVEIK
B6: IL1RL1-387 (antibody, V domains shown)
VH: EVQLLESGGGLVQPGGSLRLSCAASGFTFNRYAMNWVRQAPGKGLEWVSTISASGGRTYYADSVKGRFTISRDNSKNTLYLQMNSLRAEDTAVYYCARGSLRLDTWGQGTLVTVSS
VL: DIQMTQSPSSLSASVGDRVTITCRASQNIASYLNWYQQKPGKAPKLLIYGASRLQSGVPSRFSGSGSGTDFTLTISSLQPEDFATYYCQQSSTPRTFGGGTKVEIK
B7: IL1RL1-385 (antibody, V domains shown)
VH: EVQLLESGGGLVQPGGSLRLSCAASGFTFNTFAMSWVRQAPGKGLELVSAISGSGGNTYYVDSVKGRFTISRDNSKNTLYLQMNSLRAEDTAVYYCARLGSGSSSSIDYWGQGTLVTVSS
VL: DIQMTQSPSSLSASVGDRVTITCRASQYISTFLNWYQQKPGKAPKLLIYAASRLQDGVPSRFSGSGSGTDFTLTISSLQPEDFATYYCQQSYGSSWTFGGGTKVEIK

The target of this test is T1, IL1RL1. The test can be described thus: flow cytometry, 100 nM IgG on IL1RL1 over-expressing Expi293 cells; MFI over that of Expi293 parent cells.
Experimental: All incubations and washes were in buffer containing PBS+1% BSA. MFI Ratio is defined by the mean fluorescence intensity (MFI) of the cytokine over-expressing Expi293 cell over the Expi293 parent cell. […] EC50 was calculated in GraphPad Prism.
For B1, the “100 nM FACS (MFI Ratio)” value was found to be 11.3 MFI ratio.

For the molecule B2, the “100 nM FACS (MFI Ratio)” value was found to be 0.6 MFI ratio.

Regarding B3, the “100 nM FACS (MFI Ratio)” value was 0.85 MFI ratio.

Regarding B4, the “100 nM FACS (MFI Ratio)” value came out at 0.73 MFI ratio.

On to B5, for which the “100 nM FACS (MFI Ratio)” value worked out at 1.21 MFI ratio.

Consider B6, for which the “100 nM FACS (MFI Ratio)” value was 1.06 MFI ratio.

Regarding B7, the “100 nM FACS (MFI Ratio)” value worked out at 7.61 MFI ratio.
